Measurements reported in US10709762B2, “Use of M-CSF for preventing or treating myeloid cytopenia and related complications” (priority 2013, dated 2020).

How the values were obtained:
[1] = system: PU.1 expression in sorted HSC; experiment: Quantitative RT-PCR of PU.1 expression in sorted HSC in culture; type: cell-based, mice; conditions: 16 h in culture with cytokine, 100 ng/ml
Description: CD150+CD34− KSLF HSC or CD150+CD34− CD48− KSLF HSC (single cells) were sorted into S-clone SF-03 medium (Sanko Jyunyaku) with 10% FBS supplemented with 100 U/ml penicillin and […] streptomycin (both Invitrogen) and cultivated in uncoated U-Shape 96 well plates (Greiner) in 100 μl SCM, 20 ng/ml rSCF, 50 ng/ml rTPO+/−100 ng/ml rM-CSF or 100 ng/ml rGM-CSF or 100 ng/ml rG-CSF. All cytokines were murine and from PeproTech. Cell viability was analyzed by AnnexinV and Propidium iodide FACS staining^35.
Total RNA was isolated and reverse transcribed with μMACS™ ONE-STEP T7 template kit (Miltenyi Biotec) and analysed by quantitative real-time PCR using TAQMAN® Universal PCR Master Mix and a 7500 Fast Real Time PCR System sequence detection system (both Applied Biosystem), following the manufacturers' instructions.

[2] = system: Pseudomonas aeruginosa; experiment: Survival after Pseudomonas aeruginosa infection following HS/PC transplantation; type: in vivo, mice; conditions: P. aeruginosa infection on Day8 after irradiation and HS/PC transplantation; three injections of 10 μg M-CSF
Description: (§1) To study the functional impact of MCSF mediated HSC commitment during infections, two separate series of experiments were performed. In all experiments, after lethal irradiation of recipients, 2500 HS/PC with 200,000 cKit-carrier cells from donors were grafted.
(§2) Uninfected mice that received HS/PC transplants served as controls for efficient life saving transplantation (black line; FIGS. 8A, 8B and FIGS. 10A, 10B; n=8). Two other groups of mice received either 3 injections of MCSF (rhMCSF or Bacculo virus produced mMCSF) or PBS on the day of HS/PC transplantation.
(§3) One-week post transplantation these mice were challenged with lethal doses of either the bacteria Pseudomonas aeruginosa or the opportunistic fungus Aspergillus fumigatus.
CD45.1 and C57Bl/6 mice were obtained from Charles River. 10-14 weeks old sex-matched CD45.2 recipients were reconstituted as described^3 with bone marrow derived KSL (c-Kit(CD117)+, Sca+, Lin−) HS/PC isolated from 6-8 weeks old CD45.1. For in vivo injections the indicated concentrations of M-CSF and/or sorted cells were injected in 100-200 μl of PBS into the retro-orbital sinus. For HS/PC transplantation 2500 KLS HS/PC were sorted from CD45.1 mice and mixed with 200,000 cKit− CD45.2 or cKit−, Terr119+ carrier cells prior to injection into lethally irradiated (160 kV, 25 mA, 6.31 Gy) CD45.2 recipient mice. […]

[3] = system: Aspergillus fumigatus; experiment: Survival after Aspergillus fumigatus infection following HS/PC transplantation; type: in vivo, mice; conditions: A. fumigatus infection on D8 after irradiation and HS/PC transplantation; three injections of 10 μg M-CSF
Description: as §1, §2, §3
Each mouse received three injections of 10 μg M-CSF: 1 h before HS/PC transplantation; 6 h and 18 h post-transplantation. Human M-CSF (rhMCSF, Chiron Corporation Inc., USA, now part of Novartis AG) and Mouse M-CSF was expressed in baculovirus (Bac. virus mMCSF^56) were used for the study.
Aspergillus fumigatus FGSC 1100 was provided by the Centre International de Ressources Microbiennes—Champignons Filamenteux (CIRM-CF, Marseille, France). For each experiment, cultures were grown on Malt agar medium (2% malt extract, 2% Bacto-agar DIFCO) for 5 days at 25° C. Conidial suspension was prepared in sterile saline according to Bitmansour et al. (2002)^55. […]

[4] = system: Pseudomonas aeruginosa; experiment: Bacterial tissue load quantification; type: in vivo, mice; conditions: 18 h after infection
Description: The infected mice were killed; the organs (spleen, lungs, liver and heart) were harvested and weighed. To determine CFUs per gram of tissue serial dilutions of tissue homogenates were prepared in PBS and plated on Pseudomonas Isolation Agar (PIA) (Difco laboratories) supplemented with appropriate antibiotics and incubated overnight at 37° C. The colonies were counted after 16-24 h.
For analysis of bacterial load, mice were killed at 18 h after infection, tissue homogenates were prepared from spleen, lungs, liver and heart, and were plated to determine CFU.

[5] = system: Aspergillus fumigatus; experiment: Fungal culture of infected organs; type: in vivo; conditions: lungs, liver and heart; 48 h after infection; versus untreated mice
Description: The organs (lungs, liver, heart and spleen) were harvested, weighed and tissue homogenates were prepared in PBS. The homogenates were serially diluted and 200 μL or each dilution was plated on Sabouraud dextrose agar (DIFCO). The plates were incubated at 25° C. and pictures were taken after 3-5 days.
Furthermore in the mice succumbing to infection death was slightly delayed from D9-D14 in untreated mice to D10-D15 in the rhMCSF treated group. For analysis of fungal load, mice were killed at 48 h after infection and tissue homogenates were prepared from lungs, liver and heart. […] Fungal tissue cultures were incubated beyond 96 h to verify the typical colony morphology of A. fumigatus.

| Molecule | PU.1 expression in FACS purified HSC [1] | survival [2] | survival [3] | moribund mice [4] | tissue load of bacteria ([4]; spleen, lungs, liver and heart, versus untreated mice) | tissue load of fungal colonies [5] |
| --- | --- | --- | --- | --- | --- | --- |
| G-CSF: murine granulocyte colony-stimulating factor from PeproTech (protein, UniProt P09920 31-208, looked up) Granulocyte …: VPLVTVSALPPSLPLPRSFLLKSLEQVRKIQASGSVLLEQLCATYKLCHPEELVLLGHSLGIPKASLSGCSSQALQQTQCLSQLHSGLCLYQGLLQALSGISPALAPTLDLLQLDVANFATTIWQQMENLGVAPTVQPTQSAMPAFTSAFQRRAGGVLAISYLQGFLETARLALHHLA | not | – | – | – | – | – |
| rhMCSF: Human M-CSF (rhMCSF, Chiron Corporation Inc., USA, now part of Novartis AG) (protein, UniProt P09603 33-554, looked up) Macrophage colony-stimulating …: EEVSEYCSHMIGSGHLQSLQRLIDSQMETSCQITFEFVDQEQLKDPVCYLKKAFLLVQDIMEDTMRFRDNTPNAIAIVQLQELSLRLKSCFTKDYEEHDKACVRTFYETPLQLLEKVKNVFNETKNLLDKDWNIFSKNCNNSFAECSSQDVVTKPDCNCLYPKAIPSSDPASVSPHQPLAPSMAPVAGLTWEDSEGTEGSSLLPGEQPLHTVDPGSAKQRPPRSTCQSFEPPETPVVKDSTIGGSPQPRPSVGAFNPGMEDILDSAMGTNWVPEEASGEASEIPVPQGTELSPSRPGGGSMQTEPARPSNFLSASSPLPASAKGQQPADVTGTALPRVGPVRPTGQDWNHTPQKTDHPSALLRDPPEPGSPRISSLRPQGLSNPSTLSAQPQLSRSHSSGSVLPLGELEGRRSTRDRRSPAEPEGGPASEGAARPLPRFNSVPLTDTGHERQSEGSFSPQLQESVFHLLVPSVILVLLAVGGLLFYRWRRRSHQEPQRADSPLEQPEGSPLTQDDRQVELPV | – | 50% | 40% | two to three of the 10 mice | significant decrease | significant decrease |
| GM-CSF: murine granulocyte-macrophage colony-stimulating factor from PeproTech (protein, UniProt P01587 18-141, looked up) Granulocyte-macrophage …: APTRSPITVTRPWKHVEAIKEALNLLDDMPVTLNEEVEVVSNEFSFKKLTCVQTRLKIFEQGLRGNFTKLKGALNMTASYYQTYCPPTPETDCETQVTTYADFIDSLKTFLTDIPFECKKPGQK | not | – | – | – | – | – |
| mouse MCSF: Mouse M-CSF expressed in baculovirus (protein, UniProt P07141 33-552, looked up) Macrophage colony-stimulating …: KEVSEHCSHMIGNGHLKVLQQLIDSQMETSCQIAFEFVDQEQLDDPVCYLKKAFFLVQDIIDETMRFKDNTPNANATERLQELSNNLNSCFTKDYEEQNKACVRTFHETPLQLLEKIKNFFNETKNLLEKDWNIFTKNCNNSFAKCSSRDVVTKPDCNCLYPKATPSSDPASASPHQPPAPSMAPLAGLAWDDSQRTEGSSLLPSELPLRIEDPGSAKQRPPRSTCQTLESTEQPNHGDRLTEDSQPHPSAGGPVPGVEDILESSLGTNWVLEEASGEASEGFLTQEAKFSPSTPVGGSIQAETDRPRALSASPFPKSTEDQKPVDITDRPLTEVNPMRPIGQTQNNTPEKTDGTSTLREDHQEPGSPHIATPNPQRVSNSATPVAQLLLPKSHSWGIVLPLGELEGKRSTRDRRSPAELEGGSASEGAARPVARFNSIPLTDTGHVEQHEGSSDPQIPESVFHLLVPGIILVLLTVGGLLFYKWKWRSHRDPQTLDSSVGRPEDSSLTQDEDRQVELPV | – | 87.5% | 60% | – | – | – |
